Tests used:
[1] = tested on: O=[N+]([O-])c1ccc(OP(=O)(O)Oc2ccc([N+](=O)[O-])cc2)cc1; assay: purified protein; type: biochemical, uncultured organism; details: pH 8.5; 25.0 °C
[2] = molecular target: PdeM (uncultured organism, UniProt S5THN5); assay: p-nitrophenol release, absorbance […] nm, Michaelis-Menten non-linear fit; type: biochemical; details: 2 mM MnCl2, 50 mM Tris-HCl pH 8.5, 5 mM beta-ME, 10 mM NaCl, 25 °C, 30 min
PdeM, sequence (S5THN5 entry or part of it): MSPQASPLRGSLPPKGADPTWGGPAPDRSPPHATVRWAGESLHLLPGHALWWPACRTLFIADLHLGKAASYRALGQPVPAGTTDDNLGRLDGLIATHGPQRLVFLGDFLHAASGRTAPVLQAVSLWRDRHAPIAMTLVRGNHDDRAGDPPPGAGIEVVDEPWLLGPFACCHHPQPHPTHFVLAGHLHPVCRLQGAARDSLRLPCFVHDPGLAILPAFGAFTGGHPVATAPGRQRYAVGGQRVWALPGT

Compound	Km [1] [mM]	Km [2] [mM]
PdeM (uncultured organism)	10.21 ± 1.6	–
O=[N+]([O-])c1ccc(OP(=O)(O)c2ccccc2)cc1 [pNPPP]	–	7.2 ± 1.4
